Literature values, collected in doi:10.1101/2022.06.23.497301.

Biological target: Asp96 (UniProt position 109, PLLLLDLALLV)
Details: resting (ground, closed) state of bacteriorhodopsin

Bacteriorhodopsin (Halobacterium salinarum)
pKa: ∼12.0
